Results reported in doi:10.1101/2020.05.06.071340.

Legend:
[1] = target: T1, TOC1-CCT (Arabidopsis, UniProt Q9LKL2 533-575); test: EMSA
T1 chain: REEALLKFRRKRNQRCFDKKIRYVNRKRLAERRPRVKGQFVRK

[2] = target: T1, TOC1-CCT; test: ITC
[3] = target: T2, CCT (NMR construct) (Arabidopsis, UniProt Q9LKL2 533-590); test: NMR
T2 sequence: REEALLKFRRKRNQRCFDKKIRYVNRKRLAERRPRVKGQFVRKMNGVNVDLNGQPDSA

[4] = target: T3, CCTN (Arabidopsis, UniProt Q9LKL2 533-565); test: NMR
T3 chain: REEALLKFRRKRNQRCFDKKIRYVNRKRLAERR

## AAAUAAAUGGAGGGGAAAAAUAAAU (ssRNA) [G-rich RNA probe]
[1]
  Kd: 110 ± 6 nM
[2]
  Kd: 124 ± 8 nM

## UGGAGGGGA (ssRNA) [NMR RNA]
[3]
  binding result: binds
[4]
  binding result: binds
